{"source": "patent US8404239B2", "about": "“Anti-Notch2 NRR antibodies” (Genentech, Inc., priority 2008, dated 2013)", "molecules": {"B1": {"name": "anti-NRR2: affinity matured form of Antibody D, phage library-derived human anti-Notch2 NRR monoclonal antibody (antibody, V domains shown)", "VH": "EVQLVESGGGLVQPGGSLRLSCAASGYTFSSYGMSWVRQAPGKGLEWVSYIYPYSGATYYADSVKGRFTISADTSKNTAYLQMNSLRAEDTAVYYCARHSGYYRISSAMDVWGQGTLVTVSA", "VL": "DIQMTQSPSSLSASVGDRVTITCRASQNIKRFLAWYQQKPGKAPKLLIYGASTRESGVPSRFSGSGSGTDFTLTISSLQPEDFATYYCQQYYRSPHTFGQGTKVEIKR"}}, "key": {"[1]": {"tested_on": "Notch2 NRR", "assay": "ELISA binding to purified Notch2 NRR proteins", "conditions": "purified human or mouse protein, up to highest antibody concentration tested", "source_text": "(§1) The N-myc-Notch transgenes were expressed under control of the inducible tet promoter; bottom row, control expression in the absence of induction with doxycycline (−Dox); top row, induced expression following addition of doxycycline (+Dox); note that the K1-CHO line endogenously expresses Notch2, which is detected by anti-NRR2 in the presence and absence of doxycycline (for example, compare panels 7 and 10).\nAnti-Flag antibody was used to capture Flag-Tagged NRR protein from all four Notch receptors in a black walled, high binding plate (Greiner). NRR antibody and E25 control antibodies were bound to the NRR proteins and washed away with PBS. An Alkaline Phosphate conjugated anti-human (H+L) secondary antibody (Jackson ImmunoResearch) was used to detect bound anti-NRR and E25. Unbound secondary was washed away and AP was detected with PNPP substrate (Pierce)."}, "[2]": {"tested_on": "other three non-targeted receptors", "assay": "Binding to non-targeted Notch receptors (SPR, ELISA, FACS)", "parameters": "species or system human, mouse", "conditions": "ELISA and FACS", "procedure": "Binding affinities of anti-Notch2 NRR antibodies were measured by Surface Plasmon Resonance (SRP) using a BIAcore™-3000 instrument. Anti-Notch2 NRR human IgGs were captured by mouse anti-human IgG coated on the CM5 sensor chip to achieve approximately 200 response units (RU). For kinetics measurements, two-fold serial dilutions of human and mouse Notch2 NRR (3.9 nM to 500 nM) were injected in PBT buffer (PBS with 0.05% Tween 20) at 25° C. with a flow rate of 30 μl/min. Association rates (kon) and dissociation rates (koff) were calculated using a simple one-to-one Langmuir binding model (BIAcore Evaluation Software version 3.2). The equilibrium dissociation constant (KD) was calculated as the ratio koff/kon.\nAnti-Flag antibody was used to capture Flag-Tagged NRR protein from all four Notch receptors in a black walled, high binding plate (Greiner). NRR antibody and E25 control antibodies were bound to the NRR proteins and washed away with PBS. An Alkaline Phosphate conjugated anti-human (H+L) secondary antibody (Jackson ImmunoResearch) was used to detect bound anti-NRR and E25. Unbound secondary was washed away and AP was detected with PNPP substrate (Pierce). […]"}, "[3]": {"target": "T1, myc-Notch2 on K1-CHO cells (Homo sapiens, UniProt Q04721)", "T1 construct": "either the Notch1 or Notch2 extracellular domain and trans-membrane domains were N-terminally myc-tagged; expressed in transfected cells; host or cells: CHO-K1 (Tet-inducible, doxycycline)", "T1 sequence (Q04721 26-1677 limits assumed)": "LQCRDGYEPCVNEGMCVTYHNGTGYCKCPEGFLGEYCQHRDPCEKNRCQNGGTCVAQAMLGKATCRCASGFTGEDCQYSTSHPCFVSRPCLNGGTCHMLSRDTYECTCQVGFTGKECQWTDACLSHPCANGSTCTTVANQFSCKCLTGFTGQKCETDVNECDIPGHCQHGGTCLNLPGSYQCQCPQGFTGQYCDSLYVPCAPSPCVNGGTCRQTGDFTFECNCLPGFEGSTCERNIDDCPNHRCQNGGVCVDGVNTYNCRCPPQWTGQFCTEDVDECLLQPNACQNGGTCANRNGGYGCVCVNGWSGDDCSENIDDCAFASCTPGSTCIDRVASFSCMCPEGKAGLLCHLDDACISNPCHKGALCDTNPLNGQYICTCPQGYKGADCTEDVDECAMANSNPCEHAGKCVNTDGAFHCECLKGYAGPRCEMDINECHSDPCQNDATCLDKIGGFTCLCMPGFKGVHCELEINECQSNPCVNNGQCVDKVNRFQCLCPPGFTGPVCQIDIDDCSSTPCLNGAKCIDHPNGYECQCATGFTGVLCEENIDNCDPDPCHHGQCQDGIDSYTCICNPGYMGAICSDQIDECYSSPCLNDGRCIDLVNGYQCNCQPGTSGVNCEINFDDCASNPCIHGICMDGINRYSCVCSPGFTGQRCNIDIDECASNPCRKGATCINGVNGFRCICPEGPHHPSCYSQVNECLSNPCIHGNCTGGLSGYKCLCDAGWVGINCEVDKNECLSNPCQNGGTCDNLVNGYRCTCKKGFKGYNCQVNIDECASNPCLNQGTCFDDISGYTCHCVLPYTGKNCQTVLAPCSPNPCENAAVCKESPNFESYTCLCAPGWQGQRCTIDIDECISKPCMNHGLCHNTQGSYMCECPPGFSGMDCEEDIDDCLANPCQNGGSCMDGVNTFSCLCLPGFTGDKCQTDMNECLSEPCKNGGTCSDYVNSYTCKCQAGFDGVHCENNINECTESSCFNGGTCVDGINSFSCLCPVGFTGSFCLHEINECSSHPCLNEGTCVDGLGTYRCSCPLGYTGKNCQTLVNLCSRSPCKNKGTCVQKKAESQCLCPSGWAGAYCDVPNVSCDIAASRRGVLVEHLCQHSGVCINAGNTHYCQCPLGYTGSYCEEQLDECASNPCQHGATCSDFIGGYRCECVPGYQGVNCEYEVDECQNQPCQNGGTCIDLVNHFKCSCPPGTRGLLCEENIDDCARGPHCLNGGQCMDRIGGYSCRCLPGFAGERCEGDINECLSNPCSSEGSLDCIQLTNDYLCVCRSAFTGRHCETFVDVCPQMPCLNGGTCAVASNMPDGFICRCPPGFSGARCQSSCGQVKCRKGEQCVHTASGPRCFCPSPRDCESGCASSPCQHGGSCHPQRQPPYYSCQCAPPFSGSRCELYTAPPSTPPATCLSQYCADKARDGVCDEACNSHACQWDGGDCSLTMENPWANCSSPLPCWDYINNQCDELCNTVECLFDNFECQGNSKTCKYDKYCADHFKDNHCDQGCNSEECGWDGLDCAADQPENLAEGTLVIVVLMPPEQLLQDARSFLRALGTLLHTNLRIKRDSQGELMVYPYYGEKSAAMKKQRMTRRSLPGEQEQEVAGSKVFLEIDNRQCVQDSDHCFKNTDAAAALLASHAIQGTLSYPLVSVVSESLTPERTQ", "assay": "FACS binding to K1-CHO cells expressing N-myc-Notch2", "assay_type": "cell-based", "conditions": "doxycycline induced", "source_text": "as §1\nExpression plasmids were made in which either the Notch1 or Notch2 extracellular domain and trans-membrane domains were N-terminally myc-tagged and expressed under the control of a Tetracycline Response Element (TRE) upstream of a minimal CMV immediate early promoter. These plasmids were stably transfected into CHO-K1 cells (Clonetech), engineered to express a transactivator protein in the presence of Doxycycline that binds to and activates the TRE in the transfected plasmid. Cells were treated with […] doxycycline or vehicle for 48 hrs, and then stained with anti-NRR, anti-myc (9E10, Millipore) or E25 control antibodies and either goat anti-human Alexa 488 or Alexa 647 secondary antibodies (Invitrogen). After staining, cells were run on a FACScalibur machine (BD Biosciences) and 15000 events were collected and range gates were drawn to assess positively and negatively stained populations."}, "[4]": {"tested_on": "thymus, CD4+/CD8+ double-positive T cells", "assay": "In vivo thymus / T cell development in Balb/c mice", "parameters": "species or system mouse", "conditions": "5 mg/kg four times every four days", "procedure": "Balb/c mice were injected four times every four days with 5 mg/kg of α-gD isotype control, α-NRR1 or α-NRR2, and cells were harvested from the thymus or spleen on day 13, one day after the fourth dose. (A) Thymus weight measurements. Thymus weights (in mg) are expressed relative to total body weight (in g). Values represent the mean plus standard deviation for three mice per group. (B) Thymus cell count. (C) CD4 and CD8 FACS to identify CD4^+/CD8^+ double-positive T cells. Numbers represent the percentage of thymic cells in the double-negative, single-positive and double-positive populations. […] (D) CD21 and CD23 FACS to identify marginal zone B cells. Numbers represent the mean percentages ±standard deviation (from three animals) of cells within the MZB gate, which is boxed; p values are also noted; representative dot plots from one of the three animals in each group are graphed.\nSplenocytes were isolated from the mice and were stained for FACS with B220-PerCP, CD23-PE and CD21-FITC (BD Biosciences) as previously described (Saito, et al., Immunity, Vol. 18, 675-685, May 2003)."}, "[5]": {"assay": "Total body weight change in antibody-dosed mice", "assay_type": "in vivo, mouse", "source_text": "(A) Total body weight change (mean+/−standard deviation) vs. time. […] Arrows mark the days of dosing. (B) Immunohistochemical analyses of small intestines. […] In each row as indicated, staining is shown for haemotoxylin and eosin (H & E), Alcian Blue for mucin and to mark secretory goblet cells, lysozyme to mark Paneth cells, Ki-67 for proliferation and Hes1 as a Notch downstream target. See FIGS. 19 and 20 for analyses of the large intestine at day 7 and of the small intestine at day 2, respectively. Bar=40 μm. (C) Comparison of Notch1- versus Notch2-specific inhibition on small intestinal cell differentiation. Small intestines from the study described in (A) were prepared for Alcian Blue and Ki-67 one day after the final dosing with α-gD, α-NRR1 or α-NRR2, as indicated. Bar=50 μm.\n(B) Immunohistochemical analyses of small intestines from mice treated as in (A), using Alcian Blue for mucin to mark secretory goblet cells."}, "[6]": {"tested_on": "DB DLBCL cell line", "assay": "Growth of DB diffuse large B-cell lymphoma cell line in vitro", "assay_type": "cell-based", "procedure": "Diffuse large B-cell lymphoma (DLBCL) is the most common type of non-Hodgkin's lymphoma. […] (See Lee et al., Cancer Sci. 100:920-926, 2009.) However, how DLBCL cells would respond to Notch2 inhibition was not known. Therefore, we investigated the effect of anti-NRR2 on five DLBCL cell lines. The DLBCL lines listed on the right of FIG. 26 were grown in replicates for three days in wells of a 384-well plate. The cell cultures included the indicated concentrations of anti-NRR2 (referred to as “anti-Notch2” in FIGS. 26 and 27), which corresponded to three-fold serial dilutions starting at 10 μg/ml. Growth was assessed using Cell Titer Glo assays (Promega), plotted as the percentage of cell viability relative to treatment with an isotype control antibody. The data points in FIG. 26 represent average values obtained from individual wells for each cell line at the indicated antibody concentrations. […] The DB line was grown in wells of a 12-well plate, and the cultures were treated with DMSO, the gamma-secretase inhibitor DAPT, anti-gD isotype control antibody or anti-NRR2 at the indicated concentrations. Growth was assessed by counting viable cells (Vi-CELL, Beckman Coulter, Fullerton, Calif.) at days 2, 3 and 5 after inoculating and treating the cultures. Values represent the mean of measurements from three independent cultures, plus/minus the standard deviation."}}, "data": [{"molecule": "B1", "values": [{"measurement": "binding to Notch2 NRR proteins", "setting": "[1]", "value": "bound specifically"}, {"measurement": "binding to human or mouse sequences of the other three non-targeted receptors", "setting": "[2]", "value": "no binding"}, {"measurement": "binding to myc-Notch2 cells", "setting": "[3]", "value": "significantly bound"}, {"measurement": "total number of cells in the thymus", "setting": "[4]; day 13", "value": "not"}, {"measurement": "percentage of thymic cells in the CD4+/CD8+ population", "setting": "[4]; day 13, FACS", "value": 80, "unit": "%"}, {"measurement": "total body weight change", "setting": "[5]; first experiment (FIG. 15A)", "value": "weight gains"}, {"measurement": "effect on weight", "setting": "[5]; second experiment, 5 mg/kg (FIG. 24A)", "value": "little or no effect"}, {"measurement": "growth over time (viable cell counts)", "setting": "[6]; days 2, 3 and 5", "value": "suppresses the growth"}, {"measurement": "growth (cell viability relative to isotype control)", "setting": "[6]; three days, three-fold dilutions from 10 μg/ml", "value": "strongly inhibited"}]}]}
